What all share (test): cell-based or functional assay
Assay [1] addresses HIV-1 Env of isolate TR0.11 (HIV-1).
The target of assay [2] is HIV-1 Env of isolate DU422 (HIV-1).
For assay [3], the target named is HIV-1 JR-CSF Env, wild type (pseudovirus) (HIV-1 JR-CSF) (UniProt P20871).
The target in assay [4] is HIV-1 JR-FL Env E168K (pseudovirus) (HIV-1 JR-FL).
Assay [5] concerns the target HIV-1 Env of isolate PVO.4 (HIV-1).
Assay [6] concerns the target HIV-1 Env of isolate AC10 (HIV-1).
Assay [7] deals with HIV-1 Env of isolate Du172 (HIV-1).
For assay [8], the target named is HIV-1 Env of isolate THRO.18 (HIV-1).
Assay [9] concerns the target HIV-1 Env of isolate DU156 (HIV-1).
The target in assay [10] is HIV-1 ADA Env (pseudovirus) (HIV-1 ADA).
The target in assay [11] is HIV-1 Env of isolate REJ04541 (HIV-1).
Assay [12] has as its target MuLV envelope protein (control pseudovirus) (MuLV).
Assay [13] deals with HIV-1 Env of isolate ZM249 (HIV-1).
Assay [14] addresses HIV-1 JR-CSF Env I309A (pseudovirus) (HIV-1 JR-CSF) (UniProt P20871).
Assay [15] deals with HIV-1 Env of isolate CAP45 (HIV-1).
The target of assay [16] is HIV-1 JR-CSF Env Y318A (pseudovirus) (HIV-1 JR-CSF) (UniProt P20871).
Assay [17] concerns the target HIV-1 92RW020 Env (pseudovirus) (HIV-1 92RW020).
The target of assay [18] is HIV-1 Env of isolate ZM233 (HIV-1).
Assay [19] concerns the target HIV-1 Env of isolate ZM214 (HIV-1).
For assay [20], the target named is HIV-1 Env of isolate CAAN (HIV-1).
For assay [21], the target named is HIV-1 MGRM-D-018 envelope glycoprotein (Env) on pseudovirus (HIV-1).
In assay [22] the target is HIV-1 MGRM-D-001 envelope glycoprotein (Env) on pseudovirus (HIV-1).
Assay [23] concerns the target HIV-1 92UG005 envelope glycoprotein (Env) on pseudovirus (HIV-1).
Assay [24] concerns the target HIV-1 CMU02 envelope glycoprotein (Env) on pseudovirus (HIV-1).
Assay [25] addresses aMLV envelope protein on pseudovirus (negative control virus).
In assay [26] the target is HIV-1 MGRM-AG-005 envelope glycoprotein (Env) on pseudovirus (HIV-1).
Assay [27] addresses HIV-1 92TH021 envelope glycoprotein (Env) on pseudovirus (HIV-1).
The target in assay [28] is HIV-1 92UG024 envelope glycoprotein (Env) on pseudovirus (HIV-1).

B1: 1503_H05 (PG16) (TCN-119) (antibody, V domains shown)
VH: QEKLVESGGGVVQPGGSLRLSCLASGFTFHKYGMHWVRQAPGKGLEWVALISDDGMRKYHSDSMWGRVTISRDNSKNTLYLQFSSLKVEDTAMFFCAREAGGPIWHDDVKYYDFNDGYYNYHYMDVWGKGTIVTVSS
VL: QSALTQPASVSGSPGQTITISCNGTRSDVGGFDSVSWYQQSPGKAPKVMVFDVSHRPSGISNRFSGSKSGNTASLTISGLHIEDEGDYFCSSLTDRSHRIFGGGTKVTVLG
As for B1, the IC50, pseudovirus neutralization (TZM-bl) in assay [1] is 4.3 µg/mL; in assay [2], 0.71 µg/mL; in assay [5], 11 µg/mL; in assay [6], less than 0.01 µg/mL; in assay [7], less than 0.01 µg/mL; in [8], 4.12 µg/mL. The IC50, pseudovirus neutralization (TZM-bl) in assay [9] is less than 0.01 µg/mL; in assay [11], 0.22 µg/mL; in assay [13] it was less than 0.01 µg/mL; in assay [15], less than 0.01 µg/mL; in [18], less than 0.01 µg/mL; in assay [19], greater than 25 µg/mL. The molecule also yielded an IC50, pseudovirus neutralization (TZM-bl) in [20] of 13.5 µg/mL. Besides, the IC50 (ug/ml), neutralization in assay [3] is 0.001 µg/mL; in assay [4], 0.002 µg/mL; in assay [10] it was 0.003 µg/mL; in assay [14], greater than 1 µg/mL; in assay [16] it was greater than 1 µg/mL; in assay [17], 0.02 µg/mL. Also, the IC50, pseudovirus neutralization (TZM-bl), control virus in assay [12] is greater than 25 µg/mL.

B2: 1456_A12 (PG16) (TCN-117) (antibody, V domains shown)
VH: HEQLVEAGGGVVQPGGSLRLSCLASGFTFHKYGMHWVRQAPGKGLEWVALISDDGMRKYHSDSMWGRVTISRDNSKNTLYLQFSSLRVEDTAMFFCAREAGGPIWHDDVKYYDFNDGYYNYHYMDVWGKGTKVTVSS
VL: QSALTQPASVSGSPGQTITISCNGTSRDVGGFDSVSWYQQSPGKAPKVMVFDVSHRPSGMSNRFSGSKSGNTASLTISGLHIEDEGDYFCSSLTDRSHRIFGGGTKLTVLG
Turning to B2, the IC50, pseudovirus neutralization (TZM-bl) in assay [1] was 3.05 µg/mL; in assay [2] it was 0.36 µg/mL; in assay [5] it was 10.4 µg/mL; in assay [6], less than 0.01 µg/mL; in [7], less than 0.01 µg/mL; in assay [8] it was 2.08 µg/mL. Besides, the IC50, pseudovirus neutralization (TZM-bl) in assay [9] is less than 0.01 µg/mL; in [11], less than 0.01 µg/mL; in assay [13], less than 0.01 µg/mL; in [15], less than 0.01 µg/mL; in assay [18], less than 0.01 µg/mL; in assay [19], greater than 25 µg/mL. Besides, the IC50, pseudovirus neutralization (TZM-bl) in [20] is 10.6 µg/mL. The IC50 (ug/ml), neutralization in [3] was 0.001 µg/mL; in assay [4] it was 0.003 µg/mL; in [10], 0.005 µg/mL; in assay [14] it was greater than 1 µg/mL; in assay [16], greater than 1 µg/mL; in [17] it was 0.05 µg/mL. The IC50, pseudovirus neutralization (TZM-bl), control virus in assay [12] was greater than 25 µg/mL.

B3: PGT-123 monoclonal antibody (antibody, V domains shown)
VH: QLHLQESGPGLVKPPETLSLTCSVSGASINDAYWSWIRQSPGKRPEWVGYVHHSGDTNYNPSLKRRVTFSLDTAKNEVSLKLVDLTAADSATYFCARALHGKRIYGIVALGELFTYFYMDVWGKGTAVTVSS
VL: SSMSVSPGETAKISCGKESIGSRAVQWYQQKPGQPPSLIIYNNQDRPAGVPERFSASPDFRPGTTATLTITNVDAEDEADYYCHIYDARGGTNWVFDRGTTLTVL
For the molecule B3, the IC50, pseudovirus neutralization in [21] was 0.0047 µg/mL; in [22], 0.215 µg/mL; in [23], 2.49 µg/mL; in assay [24], greater than 10 µg/mL; in assay [25], greater than 10 µg/mL; in [26], 0.104 µg/mL. The IC50, pseudovirus neutralization in assay [27] and in assay [28] was greater than 10 µg/mL in each case.

B4: PGT-136 monoclonal antibody (antibody, V domains shown)
VH: QLQLQESGPGLVKPSETLSLTCTVSGGSMRGTDWGENDFHYGWIRQSSAKGLEWIGSIHWRGRTTHYKTSFRSRATLSIDTSNNRFSLTFSFVTAADTAVYYCARHKYHDIFRVVPVAGWFDPWGQGLLVTVSS
VL: EIVMTQSPPTLSVSPGETATLSCRASQNVKNNLAWYQLKPGQAPRLLIFDASSRAGGIPDRFSGSGYGTDFTLTVNSVQSEDFGDYFCQQYEEWPRTFGQGTKVDIK
For B4, the IC50, pseudovirus neutralization in assay [21], in [22], in [23], in assay [24], in assay [25] and in assay [26] was greater than 10 µg/mL throughout. Further, the IC50, pseudovirus neutralization was greater than 10 µg/mL in [27] and 0.0915 µg/mL in assay [28].

B5: PGT-125 monoclonal antibody (antibody, V domains shown)
VH: QSQLQESGPRLVEASETLSLTCNVSGESTGACTYFWGWVRQAPGKGLEWIGSLSHCQSFWGSGWTFHNPSLKSRLTISLDTPKNQVFLKLTSLTAADTATYYCARFDGEVLVYNHWPKPAWVDLWGRGIPVTVSS
VL: QSALTQPPSASGSPGQSITISCNGTATNFVSWYQQFPDKAPKLIIFGVDKRPPGVPDRFSGSRSGTTASLTVSRLQTDDEAVYYCGSLVGNWDVIFGGGTTLTVL
As for B5, the IC50, pseudovirus neutralization was 0.0382 µg/mL in assay [21]; 2.31 µg/mL in assay [22]; greater than 10 µg/mL in assay [23]; greater than 10 µg/mL in assay [24]; greater than 10 µg/mL in assay [25]; greater than 10 µg/mL in assay [26]. In addition, the IC50, pseudovirus neutralization is 0.0066 µg/mL in assay [27] and greater than 10 µg/mL in assay [28].

B6: PGT-126 monoclonal antibody (antibody, V domains shown)
VH: QPQLQESGPGLVEASETLSLTCTVSGDSTAACDYFWGWVRQPPGKGLEWIGGLSHCAGYYNTGWTYHNPSLKSRLTISLDTPKNQVFLKLNSVTAADTAIYYCARFDGEVLVYHDWPKPAWVDLWGRGTLVTVSS
VL: QSALTQPPSASGSPGQSISISCTGTSNRFVSWYQQHPGKAPKLVIYGVNKRPSGVPDRFSGSKSGNTASLTVSGLQTDDEAVYYCSSLVGNWDVIFGGGTKLTVL
Turning to B6, the IC50, pseudovirus neutralization in [21] is 0.0093 µg/mL; in assay [22], 0.0639 µg/mL; in assay [23] it was 0.0181 µg/mL; in assay [24] it was greater than 10 µg/mL; in assay [25], greater than 10 µg/mL; in assay [26] it was 1.35 µg/mL. Besides, the results for the IC50, pseudovirus neutralization in assay [27] and in [28] were 0.115 µg/mL and greater than 10 µg/mL, respectively.

B7: PGT-135 monoclonal antibody (antibody, V domains shown)
VH: QLQMQESGPGLVKPSETLSLSCTVSGDSIRGGEWGDKDYHWGWVRHSAGKGLEWIGSIHWRGTTHYKESLRRRVSMSIDTSRNWFSLRLASVTAADTAVYFCARHRHHDVFMLVPIAGWFDVWGPGVQVTVSS
VL: EIVMTQSPDTLSVSPGETVTLSCRASQNINKNLAWYQYKPGQSPRLVIFETYSKIAAFPARFVASGSGTEFTLTINNMQSEDVAVYYCQQYEEWPRTFGQGTKVDIK
As to B7, the IC50, pseudovirus neutralization in assay [21] is 0.0433 µg/mL; in assay [22], greater than 10 µg/mL; in [23] it was greater than 10 µg/mL; in [24], greater than 10 µg/mL; in [25], greater than 10 µg/mL; in [26], greater than 10 µg/mL. Moreover, the values for the IC50, pseudovirus neutralization in [27] and in assay [28] were greater than 10 µg/mL and 0.0139 µg/mL, respectively.

B8: PGT-130 monoclonal antibody (antibody, V domains shown)
VH: QVQLQESGPGLVKPAETLSLTCSVSGESINTGHYYWGWVRQVPGKGLEWIGHIHYTTAVLHNPSLKSRLTIKIYTLRNQITLRLSNVTAADTAVYHCVRSGGDILYYYEWQKPHWFSPWGPGIHVTVSS
VL: QSALTQPPSASGSLGQSVTISCNGTSSDIGGWNFVSWYQQFPGRAPRLIIFEVNKRPSGVPGRFSGSKSGNSASLTVSGLQSDDEGQYFCSSLFGRWDVVFGGGTKLTVL
Consider B8, for which the IC50, pseudovirus neutralization in [21] is 0.0378 µg/mL; in assay [22] it was greater than 10 µg/mL; in assay [23], 0.474 µg/mL; in assay [24], greater than 10 µg/mL; in assay [25], greater than 10 µg/mL; in assay [26], 0.947 µg/mL. In addition, the IC50, pseudovirus neutralization was 0.0082 µg/mL in assay [27] and greater than 10 µg/mL in assay [28].

Values taken from patent US20200024330A1.
